Results reported in patent publication US20190330277A1.

Columns and labels:
[1] = molecular target: bRSV RB94 DSCav1 (bovine respiratory syncytial virus, strain RB94) (UniProt P23728); test: biolayer interferometry (Octet), variant on Ni-NTA tip, Fab in solution
[2] = molecular target: bRSV RB94 DSCav1 (bovine respiratory syncytial virus, strain RB94) (UniProt P23728)
[3] = molecular target: bRSV RB94 DSCav1 (bovine respiratory syncytial virus, strain RB94) (UniProt P23728); test: biolayer interferometry Octet binding analysis
[4] = molecular target: 391-2-DS-Cav1-BZGJ9deleteFS; test: ELISA, variant from culture supernatant on Ni-NTA plate [continued]
[5] = molecular target: 391-2-DS-Cav1-sc9deleteFS 98C-362C; test: ELISA, variant from culture supernatant on Ni-NTA plate
[6] = molecular target: RB94 sc9 DS-CAV1 N183GC-N428C L373R; test: as above
[7] = molecular target: 391-2-DS-Cav1-sc9 99C-361C; test: as above; further: unit not given here
[8] = molecular target: 391-2-DS-Cav1-sc9 99C-362C; test: as above
[9] = molecular target: 391-2 sc9 DS-Cav1 98C-362C; test: as above
[10] = molecular target: RB94 sc9 DS-CAV1 N183GC-N428C L373R Long; test: as above
[11] = molecular target: 391-2-DS-Cav1_ sc9_I28C-G464C; test: as above
[12] = molecular target: RB94 sc9 DS-CAV1 N183GC-N428C L373R Long K226L; test: as above
[13] = molecular target: 391-2-DS-Cav1-sc9 100C-362C; test: as above; further: unit not given here

MPE8 antibody, sequence (VH): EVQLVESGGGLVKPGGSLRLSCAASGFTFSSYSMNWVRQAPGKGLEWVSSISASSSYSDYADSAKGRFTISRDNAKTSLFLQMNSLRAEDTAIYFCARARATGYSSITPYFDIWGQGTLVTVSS
MPE8 antibody, sequence (VL): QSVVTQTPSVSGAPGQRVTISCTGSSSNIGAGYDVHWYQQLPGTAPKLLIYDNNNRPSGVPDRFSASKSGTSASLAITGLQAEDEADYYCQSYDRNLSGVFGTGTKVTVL

**Q.** For MPE8 Fab, which Kd [1] is on record?
**A.** 200 pM

**Q.** Which Kd [1] does the source give for AM14 Fab here?
**A.** 4900 pM

**Q.** How did the Kd [1] turn out when motavizumab Fab was run?
**A.** 900 pM

**Q.** Which ELISA binding value [2] does the source give for MPE8 antibody here?
**A.** 0.199

**Q.** And the response level (biolayer interferometry) [3]?
**A.** 0.5 nm

**Q.** And the ELISA binding value [4]?
**A.** 0.0675

**Q.** What about the ELISA binding value [5] of the same substance?
**A.** 0.448

**Q.** And the ELISA binding value [6]?
**A.** 0.322

**Q.** What about the ELISA binding value [7] of the same substance?
**A.** 0.198

**Q.** What about the ELISA binding value [8] of the same substance?
**A.** 0.311

**Q.** And the ELISA binding value [9]?
**A.** 0.48

**Q.** And the ELISA binding value [10]?
**A.** 0.335

**Q.** What about the ELISA binding value [11] of the same substance?
**A.** 0.203

**Q.** What about the ELISA binding value [12] of the same substance?
**A.** 0.293

**Q.** What about the ELISA binding value [13] of the same substance?
**A.** 0.131
